Measured values taken from paper PMC3392113 (Human Molecular Genetics, 2012).

Molecular target: the molecule itself
Test: SDS-PAGE

B1: MBP-ΔN597 (human DISC1 amino acids 326-597 fused to maltose-binding protein) (domain or fragment, UniProt Q9NRI5 326-597, looked up)
chain: WDTLLRKWEPVLRDCLLRNRRQMEVISLRLKLQKLQEDAVENDDYDKAETLQQRLEDLEQEKISLHFQLPSRQPALSSFLGHLAAQVQAALRRGATQQASGDDTHTPLRMEPRLLEPTAQDSLHVSITRRDWLLQEKQQLQKEIEALQARMFVLEAKDQQLRREIEEQEQQLQWQGCDLTPLVGQLSLGQLQEVSKALQDTLASAGQIPFHAEPPETIRSLQERIKSLNLSLKEITTKVCMSEKFCSTLRKKVNDIETQLPALLEAKMHAIS
  stoichiometry N: 2
